Tests used:
Experiment in all cases: yeast two-hybrid
[1] = biological target: T1, GTPase-activating protein 1 (aa 1299-1555) (UniProt P46940 1299-1555)
T1 construct: range 1299-1555; also called IQGAP1; IQGAP
T1 sequence (looked up): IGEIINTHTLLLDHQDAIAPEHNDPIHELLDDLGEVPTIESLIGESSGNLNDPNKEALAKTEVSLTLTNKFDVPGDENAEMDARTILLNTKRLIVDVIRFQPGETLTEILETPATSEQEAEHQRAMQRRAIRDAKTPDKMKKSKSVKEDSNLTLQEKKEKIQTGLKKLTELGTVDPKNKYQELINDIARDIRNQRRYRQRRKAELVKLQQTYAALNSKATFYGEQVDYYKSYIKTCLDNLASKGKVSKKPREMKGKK

[2] = biological target: T2, GTPase-activating protein 1 (aa 1413-1567) (UniProt P46940 1413-1567)
T2 construct: range 1413-1567; also called IQGAP1; IQGAP
T2 sequence (looked up): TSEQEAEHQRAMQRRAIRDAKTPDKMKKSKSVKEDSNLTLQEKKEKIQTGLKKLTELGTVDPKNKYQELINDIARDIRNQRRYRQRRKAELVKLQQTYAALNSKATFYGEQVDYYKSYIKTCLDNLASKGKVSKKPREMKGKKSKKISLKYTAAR

[3] = biological target: T3, GTPase-activating protein 1 (aa 1392-1657) (UniProt P46940 1392-1657)
T3 construct: range 1392-1657; also called IQGAP1; IQGAP
T3 sequence (looked up): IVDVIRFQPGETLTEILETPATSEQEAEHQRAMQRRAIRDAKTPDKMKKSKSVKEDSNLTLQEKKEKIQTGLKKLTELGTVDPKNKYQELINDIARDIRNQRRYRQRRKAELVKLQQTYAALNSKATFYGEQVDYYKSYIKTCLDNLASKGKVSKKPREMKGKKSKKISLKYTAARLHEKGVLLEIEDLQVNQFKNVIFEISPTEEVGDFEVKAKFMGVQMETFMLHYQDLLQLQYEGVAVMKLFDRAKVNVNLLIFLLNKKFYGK

[4] = biological target: T4, GTPase-activating protein 1 (aa 1419-1657) (UniProt P46940 1419-1657)
T4 construct: range 1419-1657; also called IQGAP1; IQGAP
T4 sequence (looked up): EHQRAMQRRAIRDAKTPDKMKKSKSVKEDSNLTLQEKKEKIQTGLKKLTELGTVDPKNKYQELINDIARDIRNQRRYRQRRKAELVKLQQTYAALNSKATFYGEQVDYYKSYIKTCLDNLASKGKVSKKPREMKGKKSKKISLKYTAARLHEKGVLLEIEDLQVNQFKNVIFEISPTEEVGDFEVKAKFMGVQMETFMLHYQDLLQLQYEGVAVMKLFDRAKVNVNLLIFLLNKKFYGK

[5] = biological target: T5, serum deprivation response (aa 75-258) (UniProt O95810 75-258)
T5 construct: range 75-258
T5 sequence (looked up): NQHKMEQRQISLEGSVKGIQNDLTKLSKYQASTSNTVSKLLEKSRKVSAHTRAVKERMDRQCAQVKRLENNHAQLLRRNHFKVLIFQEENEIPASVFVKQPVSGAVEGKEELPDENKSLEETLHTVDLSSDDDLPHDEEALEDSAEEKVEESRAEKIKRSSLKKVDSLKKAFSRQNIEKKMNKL

[6] = biological target: T6, mitotic spindle coiled-coil related protein (aa 723-1012) (UniProt Q96R06 723-1012)
T6 construct: range 723-1012
T6 sequence (looked up): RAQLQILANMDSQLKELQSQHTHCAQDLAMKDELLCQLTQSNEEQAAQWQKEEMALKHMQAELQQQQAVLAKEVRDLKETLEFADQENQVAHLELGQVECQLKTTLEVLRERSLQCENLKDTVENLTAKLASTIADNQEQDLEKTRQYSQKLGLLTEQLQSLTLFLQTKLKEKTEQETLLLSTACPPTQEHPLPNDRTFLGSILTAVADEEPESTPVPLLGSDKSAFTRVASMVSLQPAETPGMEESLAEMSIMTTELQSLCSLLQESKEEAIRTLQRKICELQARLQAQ

[7] = biological target: T7, hook2 protein (aa 290-555) (UniProt Q96ED9 290-555)
T7 construct: range 290-555
T7 sequence (looked up): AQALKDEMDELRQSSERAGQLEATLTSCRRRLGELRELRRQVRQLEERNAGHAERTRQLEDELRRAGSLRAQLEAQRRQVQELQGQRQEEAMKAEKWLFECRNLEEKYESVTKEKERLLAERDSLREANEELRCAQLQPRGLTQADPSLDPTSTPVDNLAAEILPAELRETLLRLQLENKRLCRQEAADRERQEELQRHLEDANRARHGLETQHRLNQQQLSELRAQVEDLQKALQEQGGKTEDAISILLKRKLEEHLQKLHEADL

[8] = biological target: T8, pallid (aa 21-172) (UniProt Q9UL45 21-172)
T8 construct: range 21-172
T8 sequence (looked up): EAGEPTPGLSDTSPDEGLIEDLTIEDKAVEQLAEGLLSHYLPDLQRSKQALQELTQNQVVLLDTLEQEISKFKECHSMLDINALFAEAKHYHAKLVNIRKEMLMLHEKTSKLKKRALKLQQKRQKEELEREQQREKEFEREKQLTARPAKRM

[9] = biological target: T9, catenin, GenBank U96136 (aa 684-1148) (UniProt Q9UQB3 684-1148)
T9 construct: range 684-1148
T9 sequence (looked up): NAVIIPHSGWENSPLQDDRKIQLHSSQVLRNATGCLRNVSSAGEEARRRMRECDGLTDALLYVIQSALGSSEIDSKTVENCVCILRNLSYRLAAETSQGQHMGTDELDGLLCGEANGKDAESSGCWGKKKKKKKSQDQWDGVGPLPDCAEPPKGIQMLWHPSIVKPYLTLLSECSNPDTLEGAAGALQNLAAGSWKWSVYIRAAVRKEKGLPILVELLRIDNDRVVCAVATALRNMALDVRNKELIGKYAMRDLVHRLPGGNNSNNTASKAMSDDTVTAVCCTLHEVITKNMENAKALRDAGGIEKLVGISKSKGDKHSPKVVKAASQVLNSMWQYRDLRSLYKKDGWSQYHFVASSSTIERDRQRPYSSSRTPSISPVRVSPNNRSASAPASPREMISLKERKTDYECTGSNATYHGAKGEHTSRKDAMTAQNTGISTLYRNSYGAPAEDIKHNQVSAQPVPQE

Measured: binding result

B1: Tsg101 (aa 240-391) (other, human, UniProt Q99816 240-390, looked up)
chain: WRMKEEMDRAQAELNALKRTEEDLKKGHQKLEEMVTRLDQEVAEVDKNIELLKKKDEELSSALEKMENQSENNDIDEVIIPTAPLYKQILNLYAEENAIEDTIFYLGEALRRGVIDLDVFLKHVRLLSRKQFQLRALMQKARKTAGLSDLY
notes: range 240-391; also called C-terminal fragment of Tsg101; amino acid residues 240-390
binds: [1] | [2] | [3] | [4] | [5] | [6] | [7] | [8] | [9]
